Test results from patent publication US12338277.

Columns and labels:
Experiment in all cases: cell-based or functional assay
[1] = molecular target: HIV-1 envelope of pseudovirus X1254_c3 (HIV-1)
[2] = molecular target: HIV-1 Env of pseudovirus Ce0393_C3 (HIV-1)
[3] = molecular target: HIV-1 Env of pseudovirus 0815.v3.c3 (HIV-1)
[4] = molecular target: HIV-1 envelope of pseudovirus 6244_13_85_4576 (HIV-1)
[5] = molecular target: HIV-1 envelope of pseudovirus 6480.v4.c25 (HIV-1)
[6] = molecular target: HIV-1 envelope of pseudovirus 6952.v1.c20 (HIV-1)
[7] = molecular target: HIV-1 Env of pseudovirus Ce1086_B2 (HIV-1)
[8] = molecular target: HIV-1 envelope of pseudovirus C3347.c11 (HIV-1)
[9] = molecular target: HIV-1 Env of pseudovirus ZM249M.PL1 (HIV-1)
[10] = molecular target: HIV-1 envelope of pseudovirus 89-F1_2_25 (HIV-1)
[11] = molecular target: HIV-1 Env of pseudovirus BJOX010000.06.2 (HIV-1)
[12] = molecular target: HIV-1 Env of pseudovirus 235-47 (HIV-1)
[13] = molecular target: HIV-1 Env of pseudovirus Q23.17 (HIV-1)
[14] = molecular target: HIV-1 envelope of pseudovirus 235-47 (HIV-1)
[15] = molecular target: HIV-1 envelope spike of pseudovirus R1166.c1 (HIV-1)
[16] = molecular target: HIV-1 envelope spike of pseudovirus SS1196.1 (HIV-1)
[17] = molecular target: HIV-1 envelope of pseudovirus HIV-16845-2.22 (HIV-1)
[18] = molecular target: HIV-1 envelope of pseudovirus 7030102001E5(Rev-) (HIV-1)
[19] = molecular target: HIV-1 envelope of pseudovirus P1981_C5_3 (HIV-1)
[20] = molecular target: HIV-1 Env of pseudovirus Q259.d2.17 (HIV-1)
[21] = molecular target: HIV-1 envelope of pseudovirus Ce1172_H1 (HIV-1)
[22] = molecular target: HIV-1 Env of pseudovirus CNE20 (HIV-1)
[23] = molecular target: HIV-1 envelope of pseudovirus Du156.12 (HIV-1)
[24] = molecular target: HIV-1 envelope of pseudovirus Q259.d2.17 (HIV-1)
[25] = molecular target: HIV-1 envelope of pseudovirus 9004SS_A3_4 (HIV-1)
[26] = molecular target: HIV-1 Env of pseudovirus SC422661.8 (HIV-1)
[27] = molecular target: HIV-1 Env of pseudovirus 1394C9G1(Rev-) (HIV-1)
[28] = molecular target: HIV-1 Env of pseudovirus BJOX028000.10.3 (HIV-1)
[29] = molecular target: HIV-1 Env of pseudovirus C1080.c03 (HIV-1)
[30] = molecular target: HIV-1 Env of pseudovirus MS208.A1 (HIV-1)
[31] = molecular target: HIV-1 Env of pseudovirus ZM247v1(Rev-) (HIV-1)
[32] = molecular target: HIV-1 Env of pseudovirus T255-34 (HIV-1)
[33] = molecular target: HIV-1 Env of pseudovirus CAP45.2.00.G3 (HIV-1)
[34] = molecular target: HIV-1 Env of pseudovirus 6041.v3.c23 (HIV-1)
[35] = molecular target: HIV-1 envelope spike of pseudovirus BaL.26 (HIV-1)
[36] = molecular target: HIV-1 Env of pseudovirus T257-31 (HIV-1)
[37] = molecular target: Murine leukemia virus (MuLV) envelope on pseudovirus (Murine leukemia virus)
[38] = molecular target: HIV-1 Env of pseudovirus 6952.v1.c20 (HIV-1)
[39] = molecular target: HIV-1 envelope spike of pseudovirus YU-2 (HIV-1) (UniProt P35961)
[40] = molecular target: HIV-1 envelope of pseudovirus 191084 B7-19 (HIV-1)
[41] = molecular target: HIV-1 Env of pseudovirus ZM197M.PB7 (HIV-1)
[42] = molecular target: HIV-1 Env of pseudovirus YU-2 (HIV-1) (UniProt P35961)
[43] = molecular target: HIV-1 envelope of pseudovirus WEAU_d15_410_787 (HIV-1)
[44] = molecular target: HIV-1 Env of pseudovirus X2131_C1_85 (HIV-1)
[45] = molecular target: HIV-1 envelope of pseudovirus Ce0682_E4 (HIV-1)
[46] = molecular target: HIV-1 envelope of pseudovirus T250-4 (HIV-1)
[47] = molecular target: HIV-1 envelope of pseudovirus 3103.v3.c10 (HIV-1)
[48] = molecular target: HIV-1 Env of pseudovirus Q451.e2 (HIV-1)
[49] = molecular target: HIV-1 envelope of pseudovirus 620345.c01 (HIV-1)

Sequence of 10-996 (antibody) (VH): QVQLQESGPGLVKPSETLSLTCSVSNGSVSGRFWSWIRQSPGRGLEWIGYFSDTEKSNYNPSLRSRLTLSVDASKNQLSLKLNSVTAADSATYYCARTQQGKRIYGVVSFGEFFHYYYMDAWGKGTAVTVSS
Sequence of 10-996 (antibody) (VL): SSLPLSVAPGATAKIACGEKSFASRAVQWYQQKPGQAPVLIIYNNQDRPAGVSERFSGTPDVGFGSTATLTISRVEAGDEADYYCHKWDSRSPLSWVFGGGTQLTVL
Sequence of HIV-1 envelope spike of pseudovirus YU-2 (HIV-1) (P35961 32-843): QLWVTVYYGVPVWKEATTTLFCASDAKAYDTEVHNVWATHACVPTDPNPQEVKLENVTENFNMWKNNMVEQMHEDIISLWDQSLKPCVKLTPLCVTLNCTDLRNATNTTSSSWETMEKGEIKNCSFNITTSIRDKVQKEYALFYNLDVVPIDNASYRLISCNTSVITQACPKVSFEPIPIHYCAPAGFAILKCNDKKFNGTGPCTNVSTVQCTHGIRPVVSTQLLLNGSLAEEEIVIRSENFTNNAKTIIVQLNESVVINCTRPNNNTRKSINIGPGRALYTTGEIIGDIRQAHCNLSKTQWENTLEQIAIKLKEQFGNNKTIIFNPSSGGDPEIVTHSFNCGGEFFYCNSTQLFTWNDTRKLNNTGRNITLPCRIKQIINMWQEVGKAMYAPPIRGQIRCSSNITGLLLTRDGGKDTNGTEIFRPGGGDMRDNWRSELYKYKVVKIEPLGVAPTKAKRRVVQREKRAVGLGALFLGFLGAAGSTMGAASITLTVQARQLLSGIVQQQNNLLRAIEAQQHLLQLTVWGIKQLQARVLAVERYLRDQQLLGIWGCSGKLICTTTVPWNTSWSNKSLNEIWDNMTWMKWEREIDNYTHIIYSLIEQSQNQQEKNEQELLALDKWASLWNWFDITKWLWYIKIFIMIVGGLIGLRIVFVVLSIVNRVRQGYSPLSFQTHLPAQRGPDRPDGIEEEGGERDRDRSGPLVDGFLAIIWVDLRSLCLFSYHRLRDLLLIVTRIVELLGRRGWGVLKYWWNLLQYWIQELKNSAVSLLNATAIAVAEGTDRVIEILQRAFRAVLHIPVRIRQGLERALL
Sequence of HIV-1 Env of pseudovirus YU-2 (HIV-1) (P35961 32-843 limits assumed): as the sequence (P35961 32-843) above

10-996 (antibody)
IC50 (TZM-bl neutralization) [1]: 0.121 µg/mL
IC80 (TZM-bl neutralization) [2]: > 50 µg/mL
IC80 (TZM-bl neutralization) [3]: 0.251 µg/mL
IC50 (TZM-bl neutralization) [4]: 0.353 µg/mL
IC50 (TZM-bl neutralization) [5]: 0.01 µg/mL
IC50 (TZM-bl neutralization) [6]: 0.044 µg/mL
IC80 (TZM-bl neutralization) [7]: > 50 µg/mL
IC50 (TZM-bl neutralization) [8]: > 50 µg/mL
IC80 (TZM-bl neutralization) [9]: > 50 µg/mL
IC50 (TZM-bl neutralization) [10]: > 50 µg/mL
IC80 (TZM-bl neutralization) [11]: > 50 µg/mL
IC80 (TZM-bl neutralization) [12]: 0.381 µg/mL
IC80 (TZM-bl neutralization) [13]: 0.03 µg/mL
IC50 (TZM-bl neutralization) [14]: 0.128 µg/mL
IC50 (TZM-bl neutralization assay) [15]: > 40 µg/mL
IC80 (TZM-bl neutralization assay) [15]: > 40 µg/mL
IC50 (TZM-bl neutralization assay) [16]: 0.007 µg/mL
IC80 (TZM-bl neutralization assay) [16]: 0.04 µg/mL
IC50 (TZM-bl neutralization) [17]: 1.32 µg/mL
IC50 (TZM-bl neutralization) [18]: 0.013 µg/mL
IC50 (TZM-bl neutralization) [19]: 0.005 µg/mL
IC80 (TZM-bl neutralization) [20]: > 50 µg/mL
IC50 (TZM-bl neutralization) [21]: 0.058 µg/mL
IC80 (TZM-bl neutralization) [22]: < 0.001 µg/mL
IC50 (TZM-bl neutralization) [23]: 0.018 µg/mL
IC50 (TZM-bl neutralization) [24]: > 50 µg/mL
IC50 (TZM-bl neutralization) [25]: 0.012 µg/mL
IC80 (TZM-bl neutralization) [26]: 0.627 µg/mL
IC80 (TZM-bl neutralization) [27]: 0.328 µg/mL
IC80 (TZM-bl neutralization) [28]: > 50 µg/mL
IC80 (TZM-bl neutralization) [29]: > 50 µg/mL
IC80 (TZM-bl neutralization) [30]: > 50 µg/mL
IC80 (TZM-bl neutralization) [31]: 0.252 µg/mL
IC80 (TZM-bl neutralization) [32]: > 50 µg/mL
IC80 (TZM-bl neutralization) [33]: > 50 µg/mL
IC80 (TZM-bl neutralization) [34]: > 50 µg/mL
IC50 (TZM-bl neutralization assay) [35]: 0.045 µg/mL
IC80 (TZM-bl neutralization assay) [35]: 0.228 µg/mL
IC80 (TZM-bl neutralization) [36]: > 50 µg/mL
IC50 (TZM-bl neutralization assay) [37]: > 40 µg/mL
IC80 (TZM-bl neutralization assay) [37]: > 40 µg/mL
IC80 (TZM-bl neutralization) [38]: 0.188 µg/mL
IC50 (TZM-bl neutralization assay) [39]: 0.256 µg/mL
IC80 (TZM-bl neutralization assay) [39]: 0.891 µg/mL
IC50 (TZM-bl neutralization) [40]: 0.057 µg/mL
IC80 (TZM-bl neutralization) [41]: > 50 µg/mL
IC80 (TZM-bl neutralization) [42]: 0.891 µg/mL
IC50 (TZM-bl neutralization) [43]: 0.147 µg/mL
IC80 (TZM-bl neutralization) [44]: 0.085 µg/mL
IC50 (TZM-bl neutralization) [45]: > 50 µg/mL
IC50 (TZM-bl neutralization) [46]: < 0.001 µg/mL
IC50 (TZM-bl neutralization) [47]: 0.053 µg/mL
IC80 (TZM-bl neutralization) [48]: > 50 µg/mL
IC50 (TZM-bl neutralization) [49]: > 50 µg/mL
